These results are taken from publication PMC10405849, “Soluble CD93 lectin-like domain sequesters HMGB1 to ameliorate inflammatory diseases” (Theranostics, 2023).

The test deals with T1, soluble recombinant human CD93 ectodomain protein rCD93D123 (Thr22-Lys580) (human, UniProt Q9NPY3 22-580).
T1 construct: CD93, human, ectodomain D1 (lectin-like domain) + D2 (five EGF-like repeats) + D3 (mucin-like domain), residues Thr22-Lys580; also called soluble rCD93; source: HEK293 cell protein expression system, purified (nickel-chelating Sepharose column)
T1 sequence (looked up): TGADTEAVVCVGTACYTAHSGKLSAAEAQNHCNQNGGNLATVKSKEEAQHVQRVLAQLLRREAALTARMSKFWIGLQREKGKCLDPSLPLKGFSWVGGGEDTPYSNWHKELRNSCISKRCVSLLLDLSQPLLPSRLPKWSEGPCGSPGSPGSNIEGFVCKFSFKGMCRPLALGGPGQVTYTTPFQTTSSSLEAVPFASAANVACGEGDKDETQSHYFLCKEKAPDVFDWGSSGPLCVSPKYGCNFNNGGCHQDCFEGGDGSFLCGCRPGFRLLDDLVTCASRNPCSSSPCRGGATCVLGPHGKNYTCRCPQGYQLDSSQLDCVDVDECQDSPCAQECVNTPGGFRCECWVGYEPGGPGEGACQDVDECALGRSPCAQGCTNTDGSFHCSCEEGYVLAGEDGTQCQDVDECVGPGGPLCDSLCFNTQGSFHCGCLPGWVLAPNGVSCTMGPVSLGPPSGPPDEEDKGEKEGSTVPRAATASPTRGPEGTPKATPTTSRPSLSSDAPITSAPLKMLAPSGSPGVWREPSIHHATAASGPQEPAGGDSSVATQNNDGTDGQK
The experiment in a line: co-IP; rCD93D123 (5 nM) and HMGB1 (5 nM) incubated 1 hour at 37 °C in 50 mM Tris-HCl, 100 mM NaCl, 0.25% Triton X-100, 1 mM MgCl2, 2 mM EGTA; precipitated with anti-HMGB1 antibody on protein A agarose overnight at 4 °C; blot with anti-c-Myc antibody. The settings on record: both partners purified.

B1: recombinant human high-mobility group box 1 (HMGB1) protein (natural protein, UniProt P09429 1-215, looked up)
chain: MGKGDPKKPRGKMSSYAFFVQTCREEHKKKHPDASVNFSEFSKKCSERWKTMSAKEKGKFEDMAKADKARYEREMKTYIPPKGETKKKFKDPNAPKRPPSAFFLFCSEYRPKIKGEHPGLSIGDVAKKLGEMWNNTAADDKQPYEKKAAKLKEKYEKDIAAYRAKGKPDAAKKGVVKAEKSKKKKEEEEDEEDEEDEEEEEDEEDEDEEEDDDDE
notes: High-mobility group box 1 protein, human, recombinant; No catalogue number is printed; source: bought: R&D Systems
As for B1, the binding result is listed as “binds”.
